Experimental data as given in publication PMC12872393, “NCOA4 initiates ferritinophagy by avidly binding GATE16 using two short linear interaction motifs” (Life Science Alliance, 2026).

Biological target: (GST-GATE16)2 (UniProt P60520)
Assay: SEC-MALS; 100 μl of 1 mg/ml protein on a WTC-030 column; 20 mM Tris, 150 mM NaCl, pH 7.5; 0.5 ml/min

stoichiometry N: 2
Substance: (GST-GATE16)2 (from UniProt P60520 1-117) (natural protein)
